The experiment deals with C1q CLR (collagen-like region) (UniProt P02745 31-109; P02747 31-112). Description: SPR. Background: SPR reads the build-up and loss of mass on a sensor chip optically.

The values below come from paper PMC4511006 (2015).

Ends that are not written are not given here.

B1: Acetylated PA (AcPA) (peptide)
peptide: IALILEPICCQERAA
modifications: cysteine pairing not given here; also: acetylated, position not given here
On to B1, for which the dissociation rate constant (koff) was determined as 0.000219 s⁻¹.

By koff is commonly meant the rate constant with which the complex falls apart. A high value points to a short-lived complex.
